Experimental data: publication PMC6826200, “An oligomeric state‐dependent switch in the ER enzyme FICD regulates AMPylation and deAMPylation of BiP” (The EMBO Journal, 2019)
Changes are numbered by the printed parent chain. In names and notes the source's numbering stands.

T1: biotinylated-AviTag-FICD^H363A (human, UniProt Q9BVA6 104-445, H363A, biotin on the AviTag)
T1 construct: FICD (HYPE), human, residues 104-445 (the limits are those told for all purified FICD proteins); also called N-terminally biotinylated FICD^H363A; UK 2422; not shown: AviTag, N-terminal, kept
T1 sequence (looked up): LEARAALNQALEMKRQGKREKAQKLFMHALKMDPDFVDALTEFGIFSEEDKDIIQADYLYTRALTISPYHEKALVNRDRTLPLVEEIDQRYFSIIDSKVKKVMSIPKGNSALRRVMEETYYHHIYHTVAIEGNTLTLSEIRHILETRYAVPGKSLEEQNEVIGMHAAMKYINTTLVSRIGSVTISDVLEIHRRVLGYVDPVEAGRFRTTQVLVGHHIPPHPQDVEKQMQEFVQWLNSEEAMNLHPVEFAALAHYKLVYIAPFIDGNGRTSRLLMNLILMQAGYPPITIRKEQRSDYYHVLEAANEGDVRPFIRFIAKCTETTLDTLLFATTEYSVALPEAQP

B1: Oregon Green-labelled FICD^NC (wild-type FICD carrying an N-terminal cysteine) (domain or fragment, human)
chain: CLEARAALNQALEMKRQGKREKAQKLFMHALKMDPDFVDALTEFGIFSEEDKDIIQADYLYTRALTISPYHEKALVNRDRTLPLVEEIDQRYFSIIDSKVKKVMSIPKGNSALRRVMEETYYHHIYHTVAIEGNTLTLSEIRHILETRYAVPGKSLEEQNEVIGMHAAMKYINTTLVSRIGSVTISDVLEIHRRVLGYVDPVEAGRFRTTQVLVGHHIPPHPQDVEKQMQEFVQWLNSEEAMNLHPVEFAALAHYKLVYIHPFIDGNGRTSRLLMNLILMQAGYPPITIRKEQRSDYYHVLEAANEGDVRPFIRFIAKCTETTLDTLLFATTEYSVALPEAQP
modifications: Oregon Green 488 on the N-terminal cysteine (labelling efficiency 74%)
notes: N-terminal cysteine added for site-specific labelling; FICD (HYPE), human, residues 104-445; also called UK 2339; source: E. coli, purified, labelled with Oregon Green 488-iodoacetamide, SEC
B2: catalytically inactive, dimeric FICD^H363A (residues 104-445) (domain or fragment, human, UniProt Q9BVA6 104-445, looked up)
chain: T1 sequence (looked up)
notes: FICD (HYPE), human, residues 104-445; Dimeric as analyte on BiP; in the rows with m14 and m15 one of its protomers pairs with one labelled protomer; also called dFICD^H363A; UK 1954; source: E. coli T7 Express lysY/Iq, purified (Ni-NTA, on-column Ulp1 cleavage, anion exchange, SEC)
B3: wild-type FICD (amino acid residues 104-445) (domain or fragment, human, UniProt Q9BVA6 104-445, looked up)
chain: T1 sequence (looked up) with A260H
notes: FICD (HYPE), human, residues 104-445; Homodimer in solution; its rows measure this dimerisation, so copies is left empty; also called HYPE; dFICD; source: E. coli T7 Express lysY/Iq, purified (Ni-NTA, on-column Ulp1 cleavage, anion exchange, SEC)
B4: FICD^K256S (residues 104-445) (domain or fragment, human, UniProt Q9BVA6 104-445, looked up)
chain: T1 sequence (looked up) with K153S, A260H
notes: FICD (HYPE), human, residues 104-445; also called Lys256Ser; dimer relay mutant; source: E. coli T7 Express lysY/Iq, purified (Ni-NTA, on-column Ulp1 cleavage, anion exchange, SEC)
B5: non-oxidised FICD^A252C-C421S (residues 104-445) (domain or fragment, human, UniProt Q9BVA6 104-445, looked up)
chain: T1 sequence (looked up) with A149C, A260H, C318S
notes: FICD (HYPE), human, residues 104-445; also called non-disulphide-bonded FICD^A252C-C421S; UK 2219; source: E. coli T7 Express lysY/Iq, purified; a separate preparation not subjected to oxidation with glutathione
B6: FICD^K256A (residues 104-445) (domain or fragment, human, UniProt Q9BVA6 104-445, looked up)
chain: T1 sequence (looked up) with K153A, A260H
notes: FICD (HYPE), human, residues 104-445; also called dimeric dimer relay mutant FICD^K256A; source: E. coli T7 Express lysY/Iq, purified; gel-filtered into 10 mM Tris-HCl pH 8.0, 150 mM NaCl, 1 mM TCEP for crystallisation
B7: FICD^G299S (residues 104-445) (domain or fragment, human, UniProt Q9BVA6 104-445, looked up)
chain: T1 sequence (looked up) with G196S, A260H
notes: FICD (HYPE), human, residues 104-445; also called Gly299Ser; source: E. coli T7 Express lysY/Iq, purified (Ni-NTA, on-column Ulp1 cleavage, anion exchange, SEC)
B8: FICD^E242A (residues 104-445) (domain or fragment, human, UniProt Q9BVA6 104-445, looked up)
chain: T1 sequence (looked up) with E139A, A260H
notes: FICD (HYPE), human, residues 104-445; also called dimer relay mutant; source: E. coli T7 Express lysY/Iq, purified (Ni-NTA, on-column Ulp1 cleavage, anion exchange, SEC)
B9: cysteine-free FICD^C421S (residues 104-445) (domain or fragment, human, UniProt Q9BVA6 104-445, looked up)
chain: T1 sequence (looked up) with A260H, C318S
notes: FICD (HYPE), human, residues 104-445; also called UK 2161; source: E. coli T7 Express lysY/Iq, purified by the protocol of the disulphide-linked dimers
B10: catalytically inactive, monomeric FICD^L258D-H363A (residues 104-445) (domain or fragment, human, UniProt Q9BVA6 104-445, looked up)
chain: T1 sequence (looked up) with L155D
notes: FICD (HYPE), human, residues 104-445; also called mFICD^H363A; source: E. coli T7 Express lysY/Iq, purified (Ni-NTA, on-column Ulp1 cleavage, anion exchange, SEC)
B11: FICD^S288C-H363A-C421S-TMR (dimerisation-sensitive fluorescent probe) (domain or fragment, human, UniProt Q9BVA6 104-445, looked up)
chain: T1 sequence (looked up) with S185C, C318S
modifications: tetramethylrhodamine (TMR-5-maleimide) on Cys288 (labelling efficiency 41%); unlabelled cysteines quenched with NEM
notes: FICD (HYPE), human, residues 104-445; also called FICD-TMR; UK 2473

Columns and labels:
[1] = target: the molecule itself; assay: AUC; fluorescence-detected sedimentation velocity; Oregon Green-labelled FICD from 1.6 μM to 31 pM; 50 mM HEPES-KOH pH 7.4, 150 mM KCl, 10 mM MgCl2, 1 mM CaCl2, 0.3 mM TCEP, 0.1% Tween-20, 0.15 mg/ml BSA; 45,000 rpm, 20°C; monomer-dimer isotherm of signal-averaged s; dimer to monomers
[2] = target: T2, biotinylated-AviTag-haBiP^T229A-V461F (Chinese hamster, UniProt G3I8R9 19-654, T229A | V461F, biotin on the AviTag); assay: BLI; biotinylated BiP^T229A-V461F immobilised on streptavidin biosensors and saturated with 2 mM ATP; FICD His363Ala variants at 250 nM, association or dissociation without nucleotide or with ATP 8 mM or ADP 2 mM; HKM plus 0.05% Triton X-100, 30°C; conditions: both partners purified
T2 construct: BiP, Chinese hamster; Immobilised nucleotide-free and, where indicated, saturated with 2 mM ATP on the sensor; also called BiP^T229A-V461F:Apo; BiP:ATP
T2 sequence (G3I8R9 19-654 T229A/V461F): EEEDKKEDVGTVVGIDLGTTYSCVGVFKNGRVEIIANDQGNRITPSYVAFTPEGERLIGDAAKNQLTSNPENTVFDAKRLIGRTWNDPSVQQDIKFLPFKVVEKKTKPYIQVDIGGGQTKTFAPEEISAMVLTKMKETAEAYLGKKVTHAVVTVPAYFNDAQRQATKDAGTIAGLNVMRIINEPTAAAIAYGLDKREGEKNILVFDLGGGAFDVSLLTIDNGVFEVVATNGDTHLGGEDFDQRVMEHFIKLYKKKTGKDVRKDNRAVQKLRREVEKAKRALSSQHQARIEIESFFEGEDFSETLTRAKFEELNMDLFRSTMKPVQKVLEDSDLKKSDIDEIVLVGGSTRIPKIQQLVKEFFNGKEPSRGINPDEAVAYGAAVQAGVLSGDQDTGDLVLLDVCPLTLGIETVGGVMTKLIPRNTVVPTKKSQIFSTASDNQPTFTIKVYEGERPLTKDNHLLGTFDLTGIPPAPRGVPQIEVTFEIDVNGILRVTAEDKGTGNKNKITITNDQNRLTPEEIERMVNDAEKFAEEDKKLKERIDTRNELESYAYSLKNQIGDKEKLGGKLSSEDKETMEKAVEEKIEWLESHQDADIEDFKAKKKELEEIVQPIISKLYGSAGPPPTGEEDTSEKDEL

[3] = target: T1, biotinylated-AviTag-FICD^H363A; assay: BLI; 3 nM biotinylated-AviTag-FICD^H363A incubated 10 min at 25°C with 300 nM FICD^H363A, hetero-labelled dimers loaded on streptavidin biosensors; dissociation into HKTx with or without 5 mM nucleotide; signal of sensors incubated with FICD^L258D-H363A subtracted; dimer to monomers; conditions: both partners purified
[4] = target: B11; assay: other fluorescence titration; 2.5 nM FICD^S288C-H363A-C421S-TMR with unlabelled FICD or nucleotide as titrant in HKTx, 45 min at 10°C; de-quenching of TMR fluorescence (excitation 535 nm, emission 585 nm); conditions: both partners purified
[5] = target: the molecule itself; assay: crystal structure; sitting drop vapour diffusion, protein at 9 mg/ml in 10 mM Tris-HCl pH 8.0, 150 mM NaCl, 1 mM TCEP, with 10 mM MgATP or MgAMPPNP where applicable
[6] = target: the molecule itself; assay: SEC; analytical SEC-3 HPLC column in HKMC (50 mM HEPES-KOH pH 7.4, 150 mM KCl, 10 mM MgCl2, 1 mM CaCl2), 25°C; proteins at 20 μM, or at 0.2-50 μM after 16 h at 25°C; approximate Kd from elution peak time against concentration; dimer to monomers
[7] = target: the molecule itself; assay: other fluorescence titration; 2.5 nM FICD^S288C-H363A-C421S-TMR with unlabelled FICD or nucleotide as titrant in HKTx, 45 min at 10°C; de-quenching of TMR fluorescence (excitation 535 nm, emission 585 nm)

Binder: B1
- Kd [1]: 1.2 nM

Binder: B2
- binding result [2]: binds
- fold increase of the dimer dissociation rate with 5 mM ATP against no nucleotide [3]: 3 fold
- binding result [4]: binds

Binder: B3
- stoichiometry N [5]: 2 molecules in the biological unit
- stoichiometry N [6]: 2

Binder: B4
- stoichiometry N [5]: 2 molecules in the biological unit
- Kd [6]: < 0.4 µM

Binder: B5
- binding result [6]: binds

Binder: B6
- stoichiometry N [5]: 2 molecules in the biological unit

Binder: B7
- Kd [6]: 9.5 µM

Binder: B8
- Kd [6]: < 0.4 µM

Binder: B9
- binding result [6]: binds

Binder: B10
- binding result [2]: binds

Binder: B11
- binding result [7]: binds
